Test results published in patent publication US20220143024A1, “METHODS OF USING IMIPRIDONES” (Board of Regents, The University of Texas System, priority 2019, published 2022).

How the values were obtained:
Assay in all cases: BioID-MS
[1] = target: CARS2 (human) (UniProt Q9HA77)
[2] = target: MRPL40 (human) (UniProt Q9NQ50)
[3] = target: NDUFA7 (human) (UniProt O95182)
[4] = target: ADCK3 (human) (UniProt Q8NI60)
[5] = target: MTHFD1L (human) (UniProt Q6UB35)
[6] = target: PRKCA (human) (UniProt P17252)
[7] = target: NIPSNAP2 (human) (UniProt O75323)
[8] = target: MRPS24 (human) (UniProt Q96EL2)
[9] = target: NDUFAF1 (human) (UniProt Q9Y375)
[10] = target: NUDT19 (human) (UniProt A8MXV4)
[11] = target: ACADSB (human) (UniProt P45954)
[12] = target: NFS1 (human) (UniProt Q9Y697)
[13] = target: MRRF (human) (UniProt Q96E11)
Sequence of MRRF (human) (Q96E11 56-262 limits assumed): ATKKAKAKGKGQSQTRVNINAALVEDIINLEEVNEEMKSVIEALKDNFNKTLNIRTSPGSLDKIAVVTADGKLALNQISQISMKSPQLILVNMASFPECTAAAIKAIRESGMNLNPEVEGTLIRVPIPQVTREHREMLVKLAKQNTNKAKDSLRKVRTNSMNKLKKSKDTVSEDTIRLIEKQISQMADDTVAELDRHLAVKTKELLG

[14] = target: GFM1 (human) (UniProt Q96RP9)
Sequence of GFM1 (human) (Q96RP9 37-751 limits assumed): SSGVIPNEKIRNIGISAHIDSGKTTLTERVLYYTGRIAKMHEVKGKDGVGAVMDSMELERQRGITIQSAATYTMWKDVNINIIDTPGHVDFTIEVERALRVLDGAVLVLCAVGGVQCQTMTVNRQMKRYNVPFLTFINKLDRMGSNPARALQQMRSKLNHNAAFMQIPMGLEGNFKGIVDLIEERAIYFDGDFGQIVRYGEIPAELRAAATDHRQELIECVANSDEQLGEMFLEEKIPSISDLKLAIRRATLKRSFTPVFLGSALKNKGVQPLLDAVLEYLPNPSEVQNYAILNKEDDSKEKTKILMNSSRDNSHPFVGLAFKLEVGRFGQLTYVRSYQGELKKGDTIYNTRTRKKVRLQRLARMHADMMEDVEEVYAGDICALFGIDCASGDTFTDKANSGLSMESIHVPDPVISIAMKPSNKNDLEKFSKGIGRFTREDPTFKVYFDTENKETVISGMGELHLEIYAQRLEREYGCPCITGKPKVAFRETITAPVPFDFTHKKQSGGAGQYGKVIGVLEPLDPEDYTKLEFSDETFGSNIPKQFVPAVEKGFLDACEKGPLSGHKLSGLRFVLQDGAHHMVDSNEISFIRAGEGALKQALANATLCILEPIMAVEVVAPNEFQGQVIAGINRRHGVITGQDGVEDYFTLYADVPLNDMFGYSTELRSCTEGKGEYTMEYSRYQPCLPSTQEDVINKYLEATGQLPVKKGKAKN

[15] = target: LYRM7 (human) (UniProt Q5U5X0)
Sequence of LYRM7 (human) (Q5U5X0 whole entry): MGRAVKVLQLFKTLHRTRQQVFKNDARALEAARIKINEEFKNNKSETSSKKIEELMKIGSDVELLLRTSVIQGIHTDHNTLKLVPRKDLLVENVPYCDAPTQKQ

[16] = target: ACO2 (human) (UniProt Q99798)
[17] = target: IBA57 (human) (UniProt Q5T440)
Sequence of IBA57 (human) (Q5T440 40-356 limits assumed): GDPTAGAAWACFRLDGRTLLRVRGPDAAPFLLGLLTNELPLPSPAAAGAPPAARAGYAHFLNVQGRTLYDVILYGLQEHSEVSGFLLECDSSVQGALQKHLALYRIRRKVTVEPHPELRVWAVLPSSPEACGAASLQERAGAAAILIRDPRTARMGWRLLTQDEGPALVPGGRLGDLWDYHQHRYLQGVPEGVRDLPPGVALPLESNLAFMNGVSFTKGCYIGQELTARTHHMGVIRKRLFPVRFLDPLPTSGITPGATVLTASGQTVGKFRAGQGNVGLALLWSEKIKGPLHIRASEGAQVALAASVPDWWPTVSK

[18] = target: ECSIT (human) (UniProt Q9BQ95)
[19] = target: ALDH6A1 (human) (UniProt Q02252)
[20] = target: IDI1 (human) (UniProt Q13907)
Sequence of IDI1 (human) (Q13907 whole entry): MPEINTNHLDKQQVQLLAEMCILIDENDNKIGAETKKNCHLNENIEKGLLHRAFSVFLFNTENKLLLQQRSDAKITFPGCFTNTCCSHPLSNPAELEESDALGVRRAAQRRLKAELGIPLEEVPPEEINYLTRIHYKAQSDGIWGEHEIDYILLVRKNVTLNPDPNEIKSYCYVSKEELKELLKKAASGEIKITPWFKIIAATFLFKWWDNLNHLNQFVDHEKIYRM

[21] = target: AARS2 (human) (UniProt Q5JTZ9)
[22] = target: GTPBP3 (human) (UniProt Q969Y2)
[23] = target: TFAM (human) (UniProt Q00059)
Sequence of TFAM (human) (Q00059 43-246 limits assumed): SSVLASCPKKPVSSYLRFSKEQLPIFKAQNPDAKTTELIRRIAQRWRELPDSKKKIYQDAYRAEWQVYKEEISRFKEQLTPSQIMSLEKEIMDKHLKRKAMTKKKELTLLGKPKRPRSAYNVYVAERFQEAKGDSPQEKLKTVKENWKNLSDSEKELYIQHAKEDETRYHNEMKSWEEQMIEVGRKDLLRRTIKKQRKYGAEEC

[24] = target: PYCR2 (human) (UniProt Q96C36)
[25] = target: ZADH2 (human) (UniProt Q8N4Q0)
Sequence of ZADH2 (human) (Q8N4Q0 whole entry): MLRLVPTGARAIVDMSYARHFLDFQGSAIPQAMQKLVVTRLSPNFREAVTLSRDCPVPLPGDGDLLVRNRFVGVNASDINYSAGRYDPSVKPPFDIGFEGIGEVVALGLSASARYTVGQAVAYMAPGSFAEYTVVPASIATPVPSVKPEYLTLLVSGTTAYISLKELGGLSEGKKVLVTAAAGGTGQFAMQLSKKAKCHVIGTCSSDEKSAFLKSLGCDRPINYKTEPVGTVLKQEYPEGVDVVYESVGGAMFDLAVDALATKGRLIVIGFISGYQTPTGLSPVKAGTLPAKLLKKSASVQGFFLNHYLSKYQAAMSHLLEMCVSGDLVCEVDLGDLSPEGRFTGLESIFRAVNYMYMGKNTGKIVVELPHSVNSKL

[26] = target: CRAT (human) (UniProt P43155)
[27] = target: MRPS23 (human) (UniProt Q9Y3D9)
[28] = target: NUDT1 (human) (UniProt P36639)
[29] = target: MGME1 (human) (UniProt Q9BQP7)
[30] = target: C20orf7 (human) (UniProt Q5TEU4)
[31] = target: THNSL1 (human) (UniProt Q8IYQ7)
[32] = target: CLYBL (human) (UniProt Q8N0X4)
[33] = target: NADK2 (human) (UniProt Q4G0N4)
[34] = target: NDUFAF2 (human) (UniProt Q8N183)
[35] = target: OGDH (human) (UniProt Q02218)
[36] = target: WARS2 (human) (UniProt Q9UGM6)
[37] = target: PDK3 (human) (UniProt Q15120)
[38] = target: PPA2 (human) (UniProt Q9H2U2)
[39] = target: UQCRB (human) (UniProt P14927)
Sequence of UQCRB (human) (P14927 2-111 limits assumed): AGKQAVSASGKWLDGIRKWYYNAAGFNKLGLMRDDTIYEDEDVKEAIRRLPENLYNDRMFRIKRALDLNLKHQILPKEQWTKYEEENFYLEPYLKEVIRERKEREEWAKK

[40] = target: OXCT1 (human) (UniProt P55809)
[41] = target: DHRS4 (human) (UniProt Q9BTZ2)
[42] = target: SHMT2 (human) (UniProt P34897)
Sequence of SHMT2 (human) (P34897 30-504 limits assumed): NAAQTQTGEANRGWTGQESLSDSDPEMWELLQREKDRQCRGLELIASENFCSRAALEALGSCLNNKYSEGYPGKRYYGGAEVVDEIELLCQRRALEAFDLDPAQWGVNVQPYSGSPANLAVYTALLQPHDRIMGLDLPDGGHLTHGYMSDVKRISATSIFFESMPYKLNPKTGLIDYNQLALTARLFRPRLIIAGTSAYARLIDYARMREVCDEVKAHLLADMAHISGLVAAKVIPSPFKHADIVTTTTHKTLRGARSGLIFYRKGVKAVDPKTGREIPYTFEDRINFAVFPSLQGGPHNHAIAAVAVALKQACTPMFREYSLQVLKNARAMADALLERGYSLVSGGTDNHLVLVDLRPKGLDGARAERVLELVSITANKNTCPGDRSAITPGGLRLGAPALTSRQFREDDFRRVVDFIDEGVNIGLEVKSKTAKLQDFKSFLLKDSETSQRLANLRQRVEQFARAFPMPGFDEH

[43] = target: PPIF (human) (UniProt P30405)
Sequence of PPIF (human) (P30405 30-207 limits assumed): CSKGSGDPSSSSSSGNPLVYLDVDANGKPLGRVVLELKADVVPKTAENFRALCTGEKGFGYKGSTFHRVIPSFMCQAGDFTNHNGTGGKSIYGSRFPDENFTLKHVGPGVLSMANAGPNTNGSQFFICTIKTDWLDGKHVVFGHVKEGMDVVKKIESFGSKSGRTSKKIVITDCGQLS

[44] = target: GLRX5 (human) (UniProt Q86SX6)
[45] = target: IDH3A (human) (UniProt P50213)
[46] = target: MTRF1 (human) (UniProt O75570)
[47] = target: MRPS15 (human) (UniProt P82914)
[48] = target: GATC (human) (UniProt O43716)
[49] = target: IARS2 (human) (UniProt Q9NSE4)
[50] = target: DHTKD1 (human) (UniProt Q96HY7)
[51] = target: QRSL1 (human) (UniProt Q9H0R6)
[52] = target: BCKDHB (human) (UniProt P21953)
[53] = target: SUPV3L1 (human) (UniProt Q8IYB8)
[54] = target: HSD17B8 (human) (UniProt Q92506)
[55] = target: EARS2 (human) (UniProt Q5JPH6)
Sequence of EARS2 (human) (Q5JPH6 42-523 limits assumed): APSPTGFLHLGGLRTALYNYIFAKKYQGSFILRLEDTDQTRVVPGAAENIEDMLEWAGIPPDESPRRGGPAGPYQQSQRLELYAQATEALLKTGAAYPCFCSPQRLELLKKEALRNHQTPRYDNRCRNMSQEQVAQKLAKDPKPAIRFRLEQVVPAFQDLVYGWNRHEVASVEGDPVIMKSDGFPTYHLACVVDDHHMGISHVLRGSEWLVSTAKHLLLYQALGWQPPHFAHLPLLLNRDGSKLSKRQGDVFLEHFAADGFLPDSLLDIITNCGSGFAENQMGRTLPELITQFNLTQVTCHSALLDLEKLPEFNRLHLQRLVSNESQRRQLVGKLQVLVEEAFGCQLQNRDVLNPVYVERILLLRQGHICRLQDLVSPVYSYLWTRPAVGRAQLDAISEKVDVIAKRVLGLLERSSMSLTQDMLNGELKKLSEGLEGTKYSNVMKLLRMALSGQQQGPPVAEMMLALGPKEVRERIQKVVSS

[56] = target: CPOX (human) (UniProt P36551)
[57] = target: COX5B (human) (UniProt P10606)
[58] = target: MTPAP (human) (UniProt Q9NVV4)

Sequence of MTHFD1L (human) (Q6UB35 32-978 limits assumed): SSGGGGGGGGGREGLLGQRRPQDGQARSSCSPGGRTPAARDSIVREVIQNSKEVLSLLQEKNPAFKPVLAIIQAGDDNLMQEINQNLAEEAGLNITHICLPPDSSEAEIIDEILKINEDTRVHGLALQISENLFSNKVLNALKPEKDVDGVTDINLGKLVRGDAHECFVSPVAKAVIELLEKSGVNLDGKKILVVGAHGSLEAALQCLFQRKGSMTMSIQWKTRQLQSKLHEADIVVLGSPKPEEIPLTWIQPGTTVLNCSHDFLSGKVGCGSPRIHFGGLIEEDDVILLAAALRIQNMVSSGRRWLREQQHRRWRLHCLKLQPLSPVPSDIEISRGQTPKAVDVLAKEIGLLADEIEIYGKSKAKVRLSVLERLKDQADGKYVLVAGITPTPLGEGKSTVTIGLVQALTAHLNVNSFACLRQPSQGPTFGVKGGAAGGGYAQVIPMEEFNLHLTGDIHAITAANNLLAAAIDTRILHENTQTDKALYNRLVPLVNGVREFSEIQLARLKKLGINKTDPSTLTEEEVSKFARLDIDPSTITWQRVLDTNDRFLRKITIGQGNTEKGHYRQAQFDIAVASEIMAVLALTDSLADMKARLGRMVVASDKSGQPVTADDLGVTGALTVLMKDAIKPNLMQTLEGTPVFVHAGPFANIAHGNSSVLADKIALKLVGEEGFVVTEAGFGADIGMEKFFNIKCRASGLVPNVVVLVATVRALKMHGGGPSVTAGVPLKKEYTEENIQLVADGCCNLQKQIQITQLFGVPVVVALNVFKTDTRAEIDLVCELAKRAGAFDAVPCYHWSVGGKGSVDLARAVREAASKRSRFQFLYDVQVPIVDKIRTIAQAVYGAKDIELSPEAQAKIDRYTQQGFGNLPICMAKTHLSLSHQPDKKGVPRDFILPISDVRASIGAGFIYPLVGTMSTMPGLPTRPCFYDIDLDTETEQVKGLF
Sequence of CARS2 (human) (Q9HA77 whole entry): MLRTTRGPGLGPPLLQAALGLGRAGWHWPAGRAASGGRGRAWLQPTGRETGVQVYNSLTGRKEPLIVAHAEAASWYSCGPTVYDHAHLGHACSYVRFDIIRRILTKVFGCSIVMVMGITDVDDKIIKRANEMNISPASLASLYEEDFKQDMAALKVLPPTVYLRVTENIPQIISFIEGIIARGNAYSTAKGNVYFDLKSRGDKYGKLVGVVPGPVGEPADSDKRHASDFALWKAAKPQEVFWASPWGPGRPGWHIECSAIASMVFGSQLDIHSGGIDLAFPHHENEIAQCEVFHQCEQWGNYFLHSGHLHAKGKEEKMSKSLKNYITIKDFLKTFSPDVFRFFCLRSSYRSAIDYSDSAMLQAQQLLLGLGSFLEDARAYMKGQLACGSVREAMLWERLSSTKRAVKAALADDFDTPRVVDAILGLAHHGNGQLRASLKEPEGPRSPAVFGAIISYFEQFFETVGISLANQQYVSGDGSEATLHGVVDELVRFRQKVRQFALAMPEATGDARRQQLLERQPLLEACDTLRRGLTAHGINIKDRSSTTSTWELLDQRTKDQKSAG

Substance: FlagBirA-ClpP (Y118A) (from UniProt P06709 1-321; Q16740 57-277) (enzyme)
- Log2 Fold change (vs control) [1]: -0.38 log2
- Log2 Fold change (vs control) [2]: 0.37 log2
- Log2 Fold change (vs control) [3]: -2.22 log2
- Log2 Fold change (vs control) [4]: -0.3 log2
- Log2 Fold change (vs control) [5]: 0.25 log2
- Log2 Fold change (vs control) [6]: -3.58 log2
- Log2 Fold change (vs control) [7]: 0.61 log2
- Log2 Fold change (vs control) [8]: 1.12 log2
- Log2 Fold change (vs control) [9]: -4.32 log2
- Log2 Fold change (vs control) [10]: -0.58 log2
- Log2 Fold change (vs control) [11]: -0.2 log2
- Log2 Fold change (vs control) [12]: 0.25 log2
- Log2 Fold change (vs control) [13]: -0.1 log2
- Log2 Fold change (vs control) [14]: -0.26 log2
- Log2 Fold change (vs control) [15]: 0.23 log2
- Log2 Fold change (vs control) [16]: -0.29 log2
- Log2 Fold change (vs control) [17]: 1.65 log2
- Log2 Fold change (vs control) [18]: -1.04 log2
- Log2 Fold change (vs control) [19]: -1.22 log2
- Log2 Fold change (vs control) [20]: 1.28 log2
- Log2 Fold change (vs control) [21]: -0.14 log2
- Log2 Fold change (vs control) [22]: -0.5 log2
- Log2 Fold change (vs control) [23]: 0.63 log2
- Log2 Fold change (vs control) [24]: 0.26 log2
- Log2 Fold change (vs control) [25]: -1.46 log2
- Log2 Fold change (vs control) [26]: -3 log2
- Log2 Fold change (vs control) [27]: -0.22 log2
- Log2 Fold change (vs control) [28]: -3.17 log2
- Log2 Fold change (vs control) [29]: 0.44 log2
- Log2 Fold change (vs control) [30]: -0.06 log2
- Log2 Fold change (vs control) [31]: 0.03 log2
- Log2 Fold change (vs control) [32]: -3.17 log2
- Log2 Fold change (vs control) [33]: 0.06 log2
- Log2 Fold change (vs control) [34]: -0.15 log2
- Log2 Fold change (vs control) [35]: 1.67 log2
- Log2 Fold change (vs control) [36]: 0.25 log2
- Log2 Fold change (vs control) [37]: 0.6 log2
- Log2 Fold change (vs control) [38]: 0.02 log2
- Log2 Fold change (vs control) [39]: -2.38 log2
- Log2 Fold change (vs control) [40]: -0.95 log2
- Log2 Fold change (vs control) [41]: 0.14 log2
- Log2 Fold change (vs control) [42]: -0.25 log2
- Log2 Fold change (vs control) [43]: 0.09 log2
- Log2 Fold change (vs control) [44]: -0.26 log2
- Log2 Fold change (vs control) [45]: -0.06 log2
- Log2 Fold change (vs control) [46]: -1.44 log2
- Log2 Fold change (vs control) [47]: -2.32 log2
- Log2 Fold change (vs control) [48]: -0.05 log2
- Log2 Fold change (vs control) [49]: 0.43 log2
- Log2 Fold change (vs control) [50]: -0.12 log2
- Log2 Fold change (vs control) [51]: -0.01 log2
- Log2 Fold change (vs control) [52]: 0.79 log2
- Log2 Fold change (vs control) [53]: 0.56 log2
- Log2 Fold change (vs control) [54]: -2.58 log2
- Log2 Fold change (vs control) [55]: -0.17 log2
- Log2 Fold change (vs control) [56]: 0.88 log2
- Log2 Fold change (vs control) [57]: 0.46 log2
- Log2 Fold change (vs control) [58]: -0.78 log2
